Measurements reported in article PMC12221286, “Endogenous formation of phosphatidylhomoserine in Escherichia coli through phosphatidylserine synthase” (The Journal of Biological Chemistry, 2025).

Substrate: N[C@@H](CCO)C(=O)O
Assay: purified protein
Assay type: biochemical, Escherichia coli
Conditions: 0.3 mM 18:1/18:1 CDP-DAG, 10 mM MgCl2, 0.1 M KCl, 2.4 mM Triton X-100, pH 7.5, 25 °C, apparent constants

B1: EcPssA (E. coli phosphatidylserine synthase A, PssA) (Escherichia coli K-12) (protein)
chain: MLSKFKRNKHQQHLAQLPKISQSVDDVDFFYAPADFRETLLEKIASAKQRICIVALYLEQDDGGKGILNALYEAKRQRPELDVRVLVDWHRAQRGRIGAAASNTNADWYCRMAQENPGVDVPVYGVPINTREALGVLHFKGFIIDDSVLYSGASLNDVYLHQHDKYRYDRYHLIRNRKMSDIMFEWVTQNIMNGRGVNRLDDVNRPKSPEIKNDIRLFRQELRDAAYHFQGDADNDQLSVTPLVGLGKSSLLNKTIFHLMPCAEQKLTICTPYFNLPAILVRNIIQLLREGKKVEIIVGDKTANDFYIPEDEPFKIIGALPYLYEINLRRFLSRLQYYVNTDQLVVRLWKDDDNTYHLKGMWVDDKWMLITGNNLNPRAWRLDLENAILIHDPQLELAPQREKELELIREHTTIVKHYRDLQSIADYPVKVRKLIRRLRRIRIDRLISRIL
notes: purified EcPssA in Tris/NaCl/glycerol/octyl glucoside
- Km: 4.6 ± 0.02 mM
- kcat: 2.86 ± 0.04 s⁻¹
